From paper PMC5714956, “Insight into the molecular recognition mechanism of the coactivator NCoA1 by STAT6” (Scientific Reports, 2017)
Blank lines part the entries; values can stand above or below the molecule they belong to.

Key:
[1] = biological target: NCoA1 (Homo sapiens) (UniProt Q15788); assay: competitive fluorescence polarization; details: cited from earlier work
[2] = biological target: NCoA1 (Homo sapiens) (UniProt Q15788); assay: fluorescence polarization; details: cited from earlier work
[3] = biological target: T1, NCoA1 PAS-B domain 257-385 (nuclear coactivator 1) (UniProt Q15788 257-385); assay: crystal structure; X-ray structure of the NCoA-1 PAS-B domain in complex with the STAT6 783-814 peptide (PDB 5NWX); peptide added in 1.5 fold molar excess, complex purified by gel filtration (Superdex 75); details: both partners purified
T1 construct: Used unlabeled or 15N / 15N-13C labeled in the NMR samples
T1 sequence (looked up): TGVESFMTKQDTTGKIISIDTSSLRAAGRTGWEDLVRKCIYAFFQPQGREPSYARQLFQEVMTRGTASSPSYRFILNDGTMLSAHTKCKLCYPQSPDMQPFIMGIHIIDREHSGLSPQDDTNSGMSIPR

NCoA1 (Homo sapiens), sequence (Q15788 2-1441): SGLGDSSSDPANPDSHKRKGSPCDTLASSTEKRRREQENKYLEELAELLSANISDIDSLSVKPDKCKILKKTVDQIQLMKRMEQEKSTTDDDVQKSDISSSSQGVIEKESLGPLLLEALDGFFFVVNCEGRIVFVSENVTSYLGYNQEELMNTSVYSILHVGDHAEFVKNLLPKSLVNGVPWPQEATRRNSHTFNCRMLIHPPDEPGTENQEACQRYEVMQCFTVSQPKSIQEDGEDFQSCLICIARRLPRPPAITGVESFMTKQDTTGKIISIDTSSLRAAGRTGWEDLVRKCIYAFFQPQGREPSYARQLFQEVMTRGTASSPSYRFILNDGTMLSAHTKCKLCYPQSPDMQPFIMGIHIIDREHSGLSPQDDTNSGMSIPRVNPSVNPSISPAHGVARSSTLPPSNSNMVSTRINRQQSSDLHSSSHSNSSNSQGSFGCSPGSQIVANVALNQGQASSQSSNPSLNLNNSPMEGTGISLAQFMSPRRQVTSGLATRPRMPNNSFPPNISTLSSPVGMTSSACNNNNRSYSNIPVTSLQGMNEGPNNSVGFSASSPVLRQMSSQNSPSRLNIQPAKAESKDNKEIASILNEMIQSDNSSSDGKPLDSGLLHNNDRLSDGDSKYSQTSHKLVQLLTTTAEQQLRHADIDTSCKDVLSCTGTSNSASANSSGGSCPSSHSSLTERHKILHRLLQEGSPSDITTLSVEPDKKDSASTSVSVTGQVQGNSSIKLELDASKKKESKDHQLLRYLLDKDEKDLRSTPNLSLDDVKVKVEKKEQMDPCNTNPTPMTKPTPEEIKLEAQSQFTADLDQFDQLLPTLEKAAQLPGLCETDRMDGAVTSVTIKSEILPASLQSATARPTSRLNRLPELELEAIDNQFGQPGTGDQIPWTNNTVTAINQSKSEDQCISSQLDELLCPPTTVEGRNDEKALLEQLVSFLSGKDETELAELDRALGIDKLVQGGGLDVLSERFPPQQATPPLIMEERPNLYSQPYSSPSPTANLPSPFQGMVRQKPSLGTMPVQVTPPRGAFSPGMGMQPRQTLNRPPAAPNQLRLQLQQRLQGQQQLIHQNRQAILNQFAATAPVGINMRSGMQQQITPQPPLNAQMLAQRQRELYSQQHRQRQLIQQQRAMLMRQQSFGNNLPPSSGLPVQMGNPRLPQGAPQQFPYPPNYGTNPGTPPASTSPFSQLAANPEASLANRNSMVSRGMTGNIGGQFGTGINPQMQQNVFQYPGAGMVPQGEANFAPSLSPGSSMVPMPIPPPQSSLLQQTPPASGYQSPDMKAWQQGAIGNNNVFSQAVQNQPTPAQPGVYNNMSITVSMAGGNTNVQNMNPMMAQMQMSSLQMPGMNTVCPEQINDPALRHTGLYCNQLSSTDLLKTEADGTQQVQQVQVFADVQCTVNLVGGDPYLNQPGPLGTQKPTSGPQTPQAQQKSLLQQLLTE

Molecule: STAT6 783-814 (from UniProt P42226)
Ki [1]: 40 nM | Kd [2]: 40 nM

Molecule: STAT6 794-814 (from UniProt P42226)
Ki [1]: 260 nM | Kd [2]: 320 nM

binding result [3]: binds
B1: STAT6 peptide 783-814 (fragment of the STAT6 transactivation domain with the LXXLL motif) (peptide, UniProt P42226 783-814, looked up)
chain: GTWIGEDIFPPLLPPTEQDLTKLLLEGQGESG
notes: The His7-tag probably left with the Z-tag (the Z-tag was removed on Ni-NTA resin after TEV cleavage); Used unlabeled or 15N / 15N-13C labeled in the NMR samples; source: produced recombinantly, purified (TEV cleavage, Ni-NTA, reversed phase HPLC); not shown: Z-tag, N-terminal, cleaved
